Consider 15 sequences from the DeepSol protein solubility set.

This series in a line: soluble on expression in E. coli; label from the status in PepcDB or PDB records.
In the case of “MSIPVPMETGANSEAWKKANEALMKIQGGMSKGLNASNGNNNTGQNSWMNNSFSFPNPPSAYGQFGGGFHPSTWGSGPIVPPPPPQQSAVNATAQAAYNQASFNYAPPPPPQNWNNGYGRGRGGGANNWNQQQRPQQFQPFALNRKNNSSAFPHLTSTFVPQGGGPQPLMGVGRGRGVPAPGPAKPPPPSAQRYMERAFEAANTVEDRQKTQEYLQKRLFPMLNAGNAHMVNWDNEPLPHEKNYELAPAWTPANKLPHQANGFNRKKSPSRRRSDEMSNSGAAGGGGQMKRARRDSDGASSDSDNSDPLEKMHFSSMNQKKTKAQKKAEKAARKAAKKLQKQQTPQKVKNAWKVAGGDTEARREDRARRFAETLYNVSKPSVSVPQHYFRRGQVIRGTCQNIEKSFFRLTAAPNPSEVRPLEVLRLSLQNVRDKYRARAEYSYLTSQMRSIRQDLTVQVIRNEFTVEVYEINARISLENADREEFNKCQSQLKLLYSEIENCANQAEFVAYRLLYYIAMDNQIDINALLRELTPELKENDCVEFALNVRKAVTMNNYVKFFRLFKNAPRMCPYIMDLFVDRERKKALGIITKAFRPTITYKLIAEFLSMKESTLIDWLEEELKWTDVEVGGTFDPKIPRNI”, the “soluble on expression in E. coli” value is reported as “not soluble”.

As for “MSIRDWPEAERPREKLLEQGAAALSDAELLAIFLRTGVTGCSAVELSRRLLSEFGGLRALLEADLASFCGHLGLGVAKYAQLQAVLEMGRRHLAERLRRDSILESPQAVRDYLKARLRHEQHEVFACLFLDTRHRVLSFEVLFQGSIDGASVYPRQVVKRTLAHNAAALILTHNHPSGDARPSLADRQLTARLKEALALIDVRVLDHFIIGDGEPLSLAEYGWL”, the “soluble on expression in E. coli” value is “not soluble”. For the sequence “MSISGLFILDLKGNVVISRNYRGDVDMSCIEKFMPLLVEKEDEGSASPVLVHQGISYTYIKYMNVYLVTISKKNTNVILVLSALYKIVEVFCEYFKTLEEEAVRDNFVIIYELFDEMLDFGYPQTTESKILQEFITQQGNRLETVRPPMAVTNAVSWRSEGIKYRKNEVFLDVIESVNMLANAQGTVLRSEIVGSIRFRVVLSGMPELRLGLNDKVFFQQSGASSRRGNSGKGVELEDIKFHQCVRLSRFDSERTISFIPPDGEFELMSYRLTTQVKPLIWVEAAVERHAHSRVEYMVKAKSQFKRQSVANHVEVIIPVPSDVSAPKFKTGAGTAKYVPELNAIVWSIRSFPGGREYIMRSSFMLPSIGSEELEGRPPINVKFEIPYYTTSGLQVRYLKIIEKSGYQALPWVRYVTQNGDYQMRMT”, the “soluble on expression in E. coli” value is “not soluble”. For “MSKETGKMAEEPPGSSSSAKPVTSSKKPPPNDVTTTTNTTKTTNSNQQEDMYLNGNNPYYGGFYANNRYLFPSTSSQATCIGTSSEDSPPPPPPSANGSIHRKHHQNANHHQNSRHAISDTVAVAGDDLSNVPAAVVIQLEKANRTIASQTLEIERLKSYQNQNLETHLLKKQIHDLEKEVRSGRSRFLEQQELLAEMSREMDILLREKLEMQRNSQELEKKYKKAKFASRELAKILENDLCGTPTTSNLKNFESDDEFFEEKSLFEKSRALSRQQIPNDLLEKTRKIDFSEAKNAKNQDLIDKLIDENENLQISLNREQKMTSSLQDDLEKSRRMVIDRDEHIEELKMKLGKAETKASQCESDLTQTSSDLAMERLRCEVLTGELHEIDGIFRNTQSTIQAYADDNDRLEDQCRQAQRTILTLNSKL” the value was “not soluble”; for “MSKIARKDVERLIELVGGPDNIASVSHCLTRLRFVLNDTDKADTKQLEALRMVKGCFTNAGQFQVVIGTEVDEVYKVLIELSGKSEASKDESKNAARQNMNIVERGISHLAE”, “not soluble”. For “MSKIIGIDLGTTNSCVAVLEGGEVKVIPNPEGNRTTPSVVAFKNGERLVGEVAKRQAITNPNTIISIKRHMGTDYKVEIEGKQYTPQEISAIILQYLKSYAEDYLGEPVTRAVITVPAYFNDAQRQATKDAGRIAGLEVERIINEPTAAALAYGLDKEEDQTILVYDLGGGTFDVSILELGDGVFEVKATAGDNHLGGDDFDQVIIDYLVNQFKQEHGIDLSKDKMALQRLKDAAEKAKKELSGVTQTQISLPFISANENGPLHLEMTLTRAKFEELSAHLVERTMGPVRQALQDAGLTPADIDKVILVGGSTRIPAVQEAIKRELGKEPHKGVNPDEVVAIGAAIQGGVIAGEVKDVVLLDVTPLSLGIETMGGVFTKLIERNTTIPTSKSQVFTTAADNQTTVDIHVLQGERPMAADNKSLGRFQLTGIPPAPRGVPQIEVTFDIDANGIVHVRAKDLGTNKEQSITIKSSSGLSEEEIQRMIKEAEENAEADRKRKEAAELRNEAD” the value was “soluble”. Take “MSKLYLMSLGCNKNLVDSEIMLGHLSAYELCDEPSKADVLIVNTCGFIDSAKKESINAILDLHEQRKKDSLLVVTGCLMQRYREELMKELPEVDLFTGVGDYERIDEMILKKTNLFSNSTYLQSENSKRIITGSNSHAFIKIAEGCNQKCSFCAIPSFKGKLKSREISSIIAELKDLVARGYKDFSFIAQDTSSYLFDKGEKDGLIRLIDEVEKIKGIRAARILYLYPTSASEALIKRIIASEIFINYFDMPLQHISDNMLKIMKRGANSTRLKEMLNLMKSAPNSFLRTGFIVGHPGESEADFEELCEFVKDFGFDRISVFAYSKEEDTAAFDMEQVPFKVINKRLKIIEKIVDEVIEKSFEKEVGQKRLVVCTGKSSEGEFFIAAKDLRWDREIDGEILINESECGNLEMGQIYECEILQNLDKKLLAKALRKVDANLEHHHHHH”: the “soluble on expression in E. coli” value is given as “soluble”. For “MSKQAFQKIYTKITNITKATCSLRATGVGNEELATIDGRLAQVVRIQGEDVTLQVFAGTEGIPTDAEVIFMGKAPSLKVGDQLAGRFFNAYGEPIDGGPQPEGKEVEIGGPSVNPVRRKQPSELIATGIAGIDLNNTLVTGQKIPFFADPDQPFNQVMAMVALRAESDKIILGGMGMTNDDYLFFKNTFSNAGALDRIVSFINTTEDPSVERILVPDMALAAAEYFAVEKHEKVLVLLTDMTNYADALAIVSNRMDQIPSKDSMPGSLYSDLAKIYEKAVQFPDGGSITIIAVTTLSGGDITHAVPDNTGYITEGQLYLRRDSNVGKVIVDPFRSLSRLKQLVIGKKTREDHPQVMNAAVRLFSDAANAQTKMENGFDLTDYDNRALEFANDYSRQLLAIDVNVNTTEMLDTAWELFSKHFKPAEVNIKQQLVDTYWKK” the value was “not soluble”; for “MSKRCASDRDDKDSEPVKKPRFSIANILDEVEDEEDVEVDVEDVDDVDLSSIPSKSPERSRGRPKIGLKMKEGNLPIECKLEGSELWAKFFDLGTEMIITKSGRRMFPTVKVSFTNVILDALYYIFLDVVPVDSKRYRYIYNKSAWLTAGKAEPVPKNRYYLHPDSPFTGDQLLKHVISFEKTKLTNNEVDKTGHLILNSMHKYQPRIHIVQRQKANPLDPNKVVMSEEKHCTYTFPETQFMAVTAYQNQLITKLKIEKNPFAKGFRDPTGRSPDEMERSPGDMMLSNFYHSSALQQAMFQQCLSKTLQLNPSIMMLYQNVFPTGNSLPAAPTVPGNPAEISIKSE”, “soluble”.

For “MSKRQSSLMSFFTKTPKSEKPEEEVKEKSVEEPKSLKNDTPKISNDSEKKVLKRSNSKTVSSPVKTPRNASKRPKVVVCSSSEGEDDDGDEDFEMKEAEEHESSDESEADENASDCEVVESPESTPQSTPKRGGKKKISKPLLAENTPKSVKMAGKSKKVIPDGEAVSMAGVLDKMDKIMDGEGERKRIVEKTTGAKNKAVELEPAERFDHESFDFLKPDKIRDGFKRPMSDPEYDPKTLWVPPDFHQKQTPGHRQWWTMKSQHFDTILLFKVGKFYETYHMDAVEVVRALNIAFMRGSYAHAGFPEHAASKFADQLMNHGYKVARIEQTETPQMLEERNQKTKTKEKVVRREVCRVTSNGTRTYGVLDGVDLGSASSTLDPTAKHLLAIKEFHNPETGKSSYGVCMIDTTTAHIRIGQFEDDDYRSQLRTLLANVIVVQAIVERGSISSTTKSIINGILFSVPVEHLLPKKQFMTAEDVVRIVSNEDYYGSDASEWPEVLKGMLEDSSILPKPSTDWQLALSAFGAIFWYLRDSLIDVDMLSMRNVTIYNSNSMENDQKKEKIDWNGKNLILDGTALENLNIVPNGRDSHLTSLYYVINKCSTPFGRRLLRSWLLQPTCDPKKLEQRQKAIKWLVSPDASSFMTTATATLKKIPDLDRLLQKIHTIGLKYRSEKHPDSRAIFFDTIKTNQKKIAELLAAIDGFKLCNKLRKEYIKVQKEGEGCELLDELLGNEQEMEEVDENIYFFEKMFDRSTAMKDGKIVPNAGCDEEYDEALNRVKEALNELNDYKDSVAKKYSCSIKFVDSGKVKYLLEMPENTKVSSSFELKSRRKGFIRYSTPDSEQLVAALDAVEKEKSKLGDDATRRVFEQFGHKNPIWLETVKLVSSFDVLTSLALFAKSSPFEMCMPEFDFNATDPYLIVDKGVHPCLALQSRNEVTQTTSFIANSTTMGASEAAVMLLTGPNMGGKSTLMRQTAVLAILAHIGSMVPAFSMRLTPIDRIFTRIGANDRIMCGESTFFIELKETDIMLKNATKHSLLLVDELGRGTSTFDGTAIASAVLQKISDDLACRTFFSTHYHSICDSFTNHPNVRLAHMKCVVDKENNEDPTMEDVTFLYELESGICPKSYGFYAAKLAGIDHQVVRNAYLESNKFASNLIIDPKIRHLVECARDDNFDVGELKRMIEAI”, the “soluble on expression in E. coli” value is reported as “not soluble”. For “MSKSENLYSAARELIPGGVNSPVRAFTGVGGTPLFIEKADGAYLYDVDGKAYIDYVGSWGPMVLGHNHPAIRNAVIEAAERGLSFGAPTEMEVKMAQLVTELVPTMDMVRMVNSGTEATMSAIRLARGFTGRDKIIKFEGCYHGHADCLLVKAGSGALTLGQPNSPGVPADFAKYTLTCTYNDLASVRAAFEQYPQEIACIIVEPVAGNMNCVPPLPEFLPGLRALCDEFGALLIIDEVMTGFRVALAGAQDYYGVVPDLTCLGKIIGGGMPVGAFGGRRDVMDALAPTGPVYQAGTLSGNPIAMAAGFACLNEVAQPGVHETLDELTTRLAEGLLEAAEEAGIPLVVNHVGGMFGIFFTDAESVTCYQDVMACDVERFKRFFHMMLDEGVYLAPSAFEAGFMSVAHSMEDINNTIDAARRVFAKL” the value was “soluble”.

With “MSKVPVVGIVAALLPEMGIGFQGNLPWRLAKEMKYFREVTTLTNDNSKQNVVIMGRKTWESIPQKFRPLPKRINVVVSRSFDGELRKVEDGIYHSNSLRNCLTALQSSLANENKIERIYIIGGGEIYRQSMDLADHWLITKIMPLPETTIPQMDTFLQKQELEQRFYDNSDKLVDFLPSSIQLEGRLTSQEWNGELVKGLPVQEKGYQFYFTLYTKKLEHHHHHHHH”, the “soluble on expression in E. coli” value was “soluble”.

Take “MSLAAVILDYNGVIGLQPTTDQWLRLARTALWPEDDLPAFQNAFWTARTAYDAGHLSDLAYWATVLGHHPGARRLRGLRDADTDMWTSIDDHVIDVLHQAHESGLPLVLLSNAPRHLSDVLDRRPWRRLMTHAFYSARLQVCKPDPAAYQHAMNATGAADPDRVLFVDDRADNCHAARHLGLRTLHYTGHPTDLAAALQPPNEGHHHHHH”: the “soluble on expression in E. coli” value was “soluble”. As for “MSLADAPDNLLGAYLRDRREKLDPAALGLPSTRRRTPGLRREEVAQRAHVSTAWYTWMEQGRGGAPSADVLDRLARALLLDDAEREHLFLLGVGHPPEVRYHASGGVTPRLQHVLDAMDASPAIVRTATWDVVAWNAAAAATLTDYATLPPAARNILRLIFVDPRVRDAQPNWDRVARFAVGAFRADIARGGATQAVQAFIDEMRATSAEFDALWRDHDIRSHDEGTKEIRHPHAGRITLEYSAFAVIGRADLSLVIFTPTTAADRASIRSLVAAREQARAAQAPAMEGHHHHHH”, the “soluble on expression in E. coli” value is “soluble”.

Take “MSLADEMGYVPDRRAQKLRQASSRLLGVVFELQQPFHGDLVEQIYAAATRRGYDVMLSAVAPSRAEKVAVQALMRERCEAAILLGTRFDTDELGALADRVPALVVARASGLPGVGAVRGDDVAGITLAVDHLTELGHRNIAHIDGADAPGGADRRAGFLAAMDRHGLSASATVVTGGTTETEGAEGMHTLLEMPTPPTAVVAFNDRCATGVLDLLVRSGRDVPADISVVGYDDSRLARIPHVQMTTISQDATHMAEAAVDGALAQISGDKAVDLVLAPHLVRRATTGPVAHREGHHHHHH”: the “soluble on expression in E. coli” value was “soluble”.
